For 63 substances, rank of binding signal results are on record in patent publication US20250213707A1, “COMPOUND FOR INCREASING EFFICACY OF ONCOLYTIC VIRUSES” (ABLEVIA BIOTECH GMBH, priority 2022, published 2025).

In test [1] the target is Polyclonal antibody ab6982 (Abcam). Nature of the test: cyclic peptide microarray, fiber peptides.
The target is the same in test [2]. Description: cyclic peptide microarray, hexon peptides.

Take SYTFSYI (peptide): the rank of binding signal in test [1] is 64 rank.

VDEQAEQ (peptide) came in with a rank of binding signal in test [2] of 20 rank.

In test [1], AQNQLNI (peptide) came in with a rank of binding signal of 172 rank.

In test [2], LEINLEE (peptide) came in with a rank of binding signal of 4 rank.

DIETPDT (peptide) showed a rank of binding signal in test [2] of 62 rank.

Substance EVDEQAE (peptide) yielded a rank of binding signal in test [2] of 17 rank.

In test [1], MSFSWDW (peptide) showed a rank of binding signal of 22 rank.

DEVDEQA (peptide): the rank of binding signal in test [2] was determined as 10 rank.

For IETPDTH (peptide), the rank of binding signal in test [2] was 45 rank.

Substance PEYWNFR (peptide) showed a rank of binding signal in test [1] of 31 rank.

The substance SWDWSGH (peptide) had a rank of binding signal in test [1] of 193 rank.

In the case of EINLEEE (peptide), the rank of binding signal in test [2] is 6 rank.

NYINEIF (peptide): the rank of binding signal in test [1] came to 16 rank.

The substance EEDDDNE (peptide) came in with a rank of binding signal in test [2] of 108 rank.

FVSPNG (peptide): the rank of binding signal in test [1] was found to be 13 rank.

LNLRLGQ (peptide) had a rank of binding signal in test [1] of 173 rank.

Substance YSFFRNF (peptide) came in with a rank of binding signal in test [2] of 104 rank.

In test [1], SSYTFSY (peptide) had a rank of binding signal of 42 rank.

In the case of SAHLIIR (peptide), in test [1], the rank of binding signal turned out to be 65 rank.

Take ETPDTHI (peptide): in test [2], the rank of binding signal turned out to be 51 rank.

For HNLDINY (peptide), in test [1], the rank of binding signal came out at 9 rank.

Substance KDRMYSF (peptide) gave a rank of binding signal in test [2] of 143 rank.

In the case of GDRTRYF (peptide), in test [2], the rank of binding signal turned out to be 80 rank.

As for SMSFSWD (peptide), the rank of binding signal in test [1] worked out at 144 rank.

Substance NLEEEDD (peptide) gave a rank of binding signal in test [2] of 65 rank.

As for NKGLYLF (peptide), in test [1], the rank of binding signal worked out at 20 rank.

As to TRYFSMW (peptide), the rank of binding signal in test [2] stood at 73 rank.

In test [2], DDNEDEV (peptide) yielded a rank of binding signal of 78 rank.

In test [1], NQLNLRL (peptide) showed a rank of binding signal of 72 rank.

As for YTESYIA (peptide), the rank of binding signal in test [1] is 181 rank.

As for LNNSFLD (peptide), the rank of binding signal in test [1] amounted to 180 rank.

In test [1], DTFNPVY (peptide) displayed a rank of binding signal of 130 rank.

In test [1], GQGPLFI (peptide) returned a rank of binding signal of 58 rank.

For EDEVDEQ (peptide), the rank of binding signal in test [2] is 126 rank.

Regarding ARPSEDT (peptide), the rank of binding signal in test [1] worked out at 41 rank.

HLIIRFD (peptide) had a rank of binding signal in test [1] of 60 rank.

In test [2], IGYQGFY (peptide) had a rank of binding signal of 136 rank.

In test [1], LGTGLSF (peptide) gave a rank of binding signal of 44 rank.

On to ALEINLE (peptide), for which the rank of binding signal in test [2] was 33 rank.

In test [1], QNQLNLR (peptide) registered a rank of binding signal of 82 rank.

In turn, QSAHLII (peptide) came in with a rank of binding signal in test [1] of 126 rank.

In the case of PELTPPF (peptide), the rank of binding signal in test [1] is 47 rank.

As to DDDNEDE (peptide), in test [2], the rank of binding signal is 96 rank.

EDDDNED (peptide): in test [2], the rank of binding signal worked out at 63 rank.

In the case of ATSSYTF (peptide), in test [1], the rank of binding signal worked out at 80 rank.

For AYSMSFS (peptide), the rank of binding signal in test [1] is 167 rank.

QGPLFIN (peptide): in test [1], the rank of binding signal was found to be 93 rank.

For QLNLRLG (peptide), the rank of binding signal in test [1] is 136 rank.

Consider DPEYWNE (peptide), for which, in test [1], the rank of binding signal was 53 rank.

With DRMYSFF (peptide), the rank of binding signal in test [2] was 86 rank.

IFATSSY (peptide): in test [1], the rank of binding signal was 104 rank.

In the case of FSWDWSG (peptide), the rank of binding signal in test [1] was found to be 186 rank.

For RPSEDTF (peptide), the rank of binding signal in test [1] was determined as 24 rank.

On to SFSWDWS (peptide), for which, in test [1], the rank of binding signal stood at 100 rank.

The substance SAYSMSF (peptide) showed a rank of binding signal in test [1] of 108 rank.

As to LGQGPLF (peptide), in test [1], the rank of binding signal was 27 rank.

YSMSFSW (peptide): the rank of binding signal in test [1] was 8 rank.

In the case of FLDPEYW (peptide), the rank of binding signal in test [1] worked out at 50 rank.

As for INLEEED (peptide), the rank of binding signal in test [2] amounted to 32 rank.

YINEIFA (peptide) registered a rank of binding signal in test [1] of 168 rank.

With EYWNFRN (peptide), the rank of binding signal in test [1] was 113 rank.

As to AHLIIRF (peptide), the rank of binding signal in test [1] amounted to 6 rank.

In turn, NIGYQGF (peptide) returned a rank of binding signal in test [2] of 187 rank.
